We go through 2 molecules from PMC3662692.

Assay [1] concerns the target p85 regulatory subunit of PI3 kinase (PI3K-p85; p85α in Table 1) (UniProt P27986). Briefly: biotin-peptide streptavidin-agarose pull-down, Western blot. Conditions: reference: non-phosphorylated Cav1 peptide; sites Y14. For orientation: In western blotting, separated proteins are transferred to a membrane and probed.
Assay [2] concerns the target phospholipase Cγ1 (PLCγ1) (UniProt P19174). The description is as above. As to conditions: reference: non-phosphorylated Cav1 peptide; sites Y14.
Assay [3] addresses T1, caveolin-1 (human (endogenous in Chang cells)), Q03135.
T1 chain: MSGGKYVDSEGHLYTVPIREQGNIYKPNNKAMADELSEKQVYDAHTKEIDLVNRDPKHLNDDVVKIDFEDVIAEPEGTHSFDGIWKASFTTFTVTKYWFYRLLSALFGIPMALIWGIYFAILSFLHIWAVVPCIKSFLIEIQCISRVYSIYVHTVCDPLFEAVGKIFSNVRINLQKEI
Briefly: co-IP; as a1, but Chang cells infected with N138 (PorBIB, P+) at MOI 20 for 1 h; endogenous Cav1 precipitated, Western blot. As to conditions: remark: other sources report otherwise.

The target of assay [4] is T1, caveolin-1 (human (endogenous in Chang …)). Put plainly: co-IP; endogenous Cav1 precipitated with anti-Caveolin antibody (BD Transduction) and Protein G magnetic beads from Chang cell lysates (20 mM Tris, 150 mM NaCl, 1% Triton-X-100, pH 7.5); cells not infected or infected with N927 (PorBIA, P-) at MOI 20 for 1 h; in one experiment PLCγ1 inhibitor U73122 (10 µM) added 30 min before infection; Western blot. Conditions: remark: other sources report otherwise.

Consider “caveolin-1 (Cav1) 7-21 (from UniProt Q03135) Cav1 pY14 peptide”, for which the “binding against the reference” value in assay [1] and in assay [2] was “gained” each time.

B1: Vav2, P52735 1-878 (natural protein)
chain: MEQWRQCGRWLIDCKVLPPNHRVVWPSAVVFDLAQALRDGVLLCQLLHNLSPGSIDLKDINFRPQMSQFLCLKNIRTFLKVCHDKFGLRNSELFDPFDLFDVRDFGKVISAVSRLSLHSIAQNKGIRPFPSEETTENDDDVYRSLEELADEHDLGEDIYDCVPCEDGGDDIYEDIIKVEVQQPMIRYMQKMGMTEDDKRNCCLLEIQETEAKYYRTLEDIEKNYMSPLRLVLSPADMAAVFINLEDLIKVHHSFLRAIDVSVMVGGSTLAKVFLDFKERLLIYGEYCSHMEHAQNTLNQLLASREDFRQKVEECTLKVQDGKFKLQDLLVVPMQRVLKYHLLLKELLSHSAERPERQQLKEALEAMQDLAMYINEVKRDKETLRKISEFQSSIENLQVKLEEFGRPKIDGELKVRSIVNHTKQDRYLFLFDKVVIVCKRKGYSYELKEIIELLFHKMTDDPMNNKDVKKSHGKMWSYGFYLIHLQGKQGFQFFCKTEDMKRKWMEQFEMAMSNIKPDKANANHHSFQMYTFDKTTNCKACKMFLRGTFYQGYMCTKCGVGAHKECLEVIPPCKFTSPADLDASGAGPGPKMVAMQNYHGNPAPPGKPVLTFQTGDVLELLRGDPESPWWEGRLVQTRKSGYFPSSSVKPCPVDGRPPISRPPSREIDYTAYPWFAGNMERQQTDNLLKSHASGTYLIRERPAEAERFAISIKFNDEVKHIKVVEKDNWIHITEAKKFDSLLELVEYYQCHSLKESFKQLDTTLKYPYKSRERSASRASSRSPASCASYNFSFLSPQGLSFASQGPSAPFWSVFTPRVIGTAVARYNFAARDMRELSLREGDVVRIYSRIGGDQGWWKGETNGRIGWFPSTYVEEEGIQ
B1 registered a relative amount of Vav2 in the Cav1 precipitate, cells infected with N138 (non-infected cells = 100%) in assay [3] of 99%. Also, in assay [4], the relative amount of Vav2 in the Cav1 precipitate, cells infected with N927 (non-infected cells = 100%) turned out to be 50% and the relative amount of Vav2 in the Cav1 precipitate, non-infected cells (reference) is 100%.
